According to the supplement of paper PMC9732359:
± gives the uncertainty stated by the source.

Test: protein stability index of a GFP-peptide fusion (yeast GPS) (PSI 1-4); higher = more stable; sorted into four equal gates, so the index is relative within each strain
How it was run: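 Tiled yeast protein peptides of 17 residues were each joined downstream of GFP, on plasmids that also express Cherry. The pooled library was maintained in yeast, and mid-log cultures in leucine-free medium were sorted into four equal gates on the GFP/Cherry ratio. Plasmids from every gate were amplified by PCR and sequenced on Illumina, with barcodes linking reads to strains. The protein stability index of a peptide is its gate-number-weighted read frequency summed over the gates.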

Sequence | protein stability index (doa10∆) | protein stability index (pdr5∆) | protein stability index (san1∆) | protein stability index (ubr1∆)
LAYAVLGIALIALGEDI [RPN1] | 1.73 ± 0.094 | 1.72 ± 0.094 | 1.98 ± 0.11 | 2.33 ± 0.06
KNVETLEEKILAKKTHK [SMC4] | 2.65 ± 0.075 | 2.94 ± 0.077 | 2.79 ± 0.053 | 2.92 ± 0.11
ETDGKHGKRRSQVVETH [YMR129W/POM152] | 3.27 ± 0.11 | 2.93 ± 0.097 | 3.21 ± 0.056 | 3.11 ± 0.048
ESELSLLEETQAKLKKN [SMC4] | 2.7 ± 0.17 | 3.37 ± 0.2 | 2.88 ± 0.23 | 3.11 ± 0.14
EPYVAYGYPSYSTIRQL [RPL7A] | 1.87 ± 0.044 | 2.14 ± 0.048 | 2.14 ± 0.058 | 2.23 ± 0.036
WMLSICVEWRLPEIAKE [YJR042W/NUP85] | 1.2 ± 0.08 | 1.37 ± 0.05 | 1.51 ± 0.11 | 1.67 ± 0.061
KLNVDQFISSRQFEVKQ [POP1] | 2.99 ± 0.053 | 3.08 ± 0.055 | 3.01 ± 0.041 | 2.97 ± 0.059
KNKPELYQIDYLGTKVE [PRE1] | 2.82 ± 0.091 | 2.95 ± 0.1 | 3.09 ± 0.064 | 3.16 ± 0.089
TPSTNEPYARVSGDLNP [FAS1] | 2.96 ± 0.074 | 2.6 ± 0.077 | 2.46 ± 0.15 | 2.39 ± 0.073
TPGELVTDDPIWMRGHG [RRP4] | 2.65 ± 0.19 | 2.9 ± 0.13 |  | 3.14 ± 0.15
AVCSTATVVSTNHSAAA [PGD1] | 2.85 ± 0.064 | 3.02 ± 0.077 | 2.59 ± 0.096 | 2.91 ± 0.061
KAKSHFTNIISRNKALE [YJL039C/NUP192] | 2.66 ± 0.079 | 2.01 ± 0.053 | 2.39 ± 0.13 | 2.68 ± 0.075
FGKTGDQKETKKGESEK [YOR098C/NUP1] | 3.4 ± 0.1 | 3.4 ± 0.11 | 3.45 ± 0.076 | 3.35 ± 0.061
RFKMERAGVTHVLSRLS [RET1] |  | 1.55 ± 0.18 | 1.2 ± 0.27 | 1.3 ± 0.23
TTAVDALQKGLKDLMDL [RPC19] | 3.58 ± 0.23 | 2.79 ± 0.26 | 2.9 ± 0.12 | 3.02 ± 0.13
NAASQQPTPRSASNTAK [GAL11] | 2.84 ± 0.082 | 2.68 ± 0.055 | 2.78 ± 0.049 | 2.67 ± 0.039
LVLPPVVTSSVAESFTD [SNF2] | 2.13 ± 0.047 | 2.02 ± 0.057 | 2.39 ± 0.084 | 2.32 ± 0.053
LYQLFKTCIQGINSPLS [YJL039C/NUP192] | 1.83 ± 0.12 | 2.05 ± 0.087 | 1.64 ± 0.16 | 2.04 ± 0.11
NPSQGVSNSGAQDEEIH [UBP6] | 2.04 ± 0.074 | 2.22 ± 0.068 | 2.04 ± 0.12 | 2.11 ± 0.059
MAPFRQDSILIIYPRSQ [ARP9] | 2.41 ± 0.28 | 2.69 ± 0.17 | 2.82 ± 0.083 | 2.58 ± 0.076
INAEEIVDFTLPPPPPP [PRP8] | 2.94 ± 0.07 | 3.06 ± 0.053 | 3.01 ± 0.047 | 3.04 ± 0.045
PLLTKRKDLRDKLICSI [DIS3] | 2.55 ± 0.088 | 2.62 ± 0.071 | 2.31 ± 0.1 | 3.06 ± 0.13
SKTLSLIQSYSLLDKPD [FAS1] | 2.18 ± 0.078 | 2.01 ± 0.057 | 2.12 ± 0.21 | 2.14 ± 0.074
PDIVGHEFTLSFTYELK [BRR2] | 2 ± 0.038 | 2.06 ± 0.036 | 2.15 ± 0.05 | 2.21 ± 0.033
SNGFNNVTFGSKKDPRI [YMR153W/NUP53] | 2.77 ± 0.048 | 2.74 ± 0.059 | 2.89 ± 0.045 | 2.87 ± 0.046
FKLFNKYRPETAAEKKE [RPL8A] | 2.56 ± 0.079 | 2.64 ± 0.083 | 2.5 ± 0.083 | 2.74 ± 0.071
DAFNMLSLTTVPCDRIE [SNF6] | 2.18 ± 0.05 | 2.57 ± 0.064 | 2.43 ± 0.091 | 2.4 ± 0.069
